Among the data in publication PMC9731866, “Structures of a constitutively active mutant of human IDH3 reveal new insights into the mechanisms of allosteric activation and the catalytic reaction” (The Journal of Biological Chemistry, 2022) are stoichiometry N values, retold here.

The target in assay [1] is αMβ heterodimer of HsIDH3 (α-Q139A with β) (human) (UniProt P50213). Nature of the assay: SEC-MALS; high concentration (10 mg/ml); Superdex 200 10/300 GL, 24 °C, 10 mM Hepes pH 7.4, 200 mM NaCl, 5 mM β-ME; N counts the units (heterodimers or heterotetramers) in the oligomer.
Assay [2] has the same target. Briefly: SEC-MALS; low concentration (1 mg/ml); Superdex 200 10/300 GL, 24 °C, 10 mM Hepes pH 7.4, 200 mM NaCl, 5 mM β-ME; N counts the units (heterodimers or heterotetramers) in the oligomer.
Assay [3] has as its target αMβαMγ heterotetramer of HsIDH3 (α-Q139A in both heterodimers) (human) (UniProt P50213). Briefly: SEC-MALS; high concentration (10 mg/ml); Superdex 200 10/300 GL, 24 °C, 10 mM Hepes pH 7.4, 200 mM NaCl, 5 mM β-ME; N counts the units (heterodimers or heterotetramers) in the oligomer. On the technique in general: Size exclusion chromatography separates by hydrodynamic size, large species first.

Assay [4] has the same target. Nature of the assay: SEC-MALS; low concentration (1 mg/ml); Superdex 200 10/300 GL, 24 °C, 10 mM Hepes pH 7.4, 200 mM NaCl, 5 mM β-ME; N counts the units (heterodimers or heterotetramers) in the oligomer.

For “αMβ heterodimer of HsIDH3 (α-Q139A with β) (from UniProt P50213 28-366; O43837 35-360) (complex)”, the stoichiometry N in assay [1] and in assay [2] was 2 in each case.
As to “αMβαMγ heterotetramer of HsIDH3 (α-Q139A in both heterodimers) (from UniProt P50213 28-366; O43837 35-360; P51553 40-393) (complex)”, the stoichiometry N in assay [3] and in assay [4] was 2 in each case.
